The values below come from paper PMC11931385, “Structural and functional analysis of cancer-associated missense variants in the retinoblastoma protein pocket domain” (The Journal of Biological Chemistry, 2025).

No end group written: not given here. TMR = tetramethyl rhodamine dye

Common to all, as to experiment: fluorescence polarisation; 37 °C, after the 25 °C reading ramped over 7 min to 37 °C and 2 min incubation; unlabeled Rb^P against 1.5 nM TMR-E2F1^TD or 7.5 nM TMR-E7^LxCxE; 25 mM Tris pH 8.0, 200 mM NaCl, 1 mM DTT, 0.1% Tween-20; apparent Kd
Holding throughout (conditions): both partners purified

One test has as its target T1, Rb^P V654L (human, UniProt P06400 380-788, V654L).
T1 construct: also called variant 47
T1 sequence (looked up): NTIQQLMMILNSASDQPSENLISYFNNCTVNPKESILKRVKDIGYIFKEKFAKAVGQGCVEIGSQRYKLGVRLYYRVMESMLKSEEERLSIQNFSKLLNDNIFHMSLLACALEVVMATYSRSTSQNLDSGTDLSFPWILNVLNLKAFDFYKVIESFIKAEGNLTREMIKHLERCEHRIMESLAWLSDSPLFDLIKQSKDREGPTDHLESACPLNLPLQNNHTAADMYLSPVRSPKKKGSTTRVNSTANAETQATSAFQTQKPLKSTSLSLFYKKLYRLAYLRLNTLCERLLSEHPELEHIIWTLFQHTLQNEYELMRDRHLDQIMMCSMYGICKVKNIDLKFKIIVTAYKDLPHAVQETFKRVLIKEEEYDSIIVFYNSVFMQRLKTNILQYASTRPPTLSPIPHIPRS

The target of the next test is T2, Rb^P R656W (human, UniProt P06400 380-788, R656W).
T2 construct: also called variant 49
T2 sequence (looked up): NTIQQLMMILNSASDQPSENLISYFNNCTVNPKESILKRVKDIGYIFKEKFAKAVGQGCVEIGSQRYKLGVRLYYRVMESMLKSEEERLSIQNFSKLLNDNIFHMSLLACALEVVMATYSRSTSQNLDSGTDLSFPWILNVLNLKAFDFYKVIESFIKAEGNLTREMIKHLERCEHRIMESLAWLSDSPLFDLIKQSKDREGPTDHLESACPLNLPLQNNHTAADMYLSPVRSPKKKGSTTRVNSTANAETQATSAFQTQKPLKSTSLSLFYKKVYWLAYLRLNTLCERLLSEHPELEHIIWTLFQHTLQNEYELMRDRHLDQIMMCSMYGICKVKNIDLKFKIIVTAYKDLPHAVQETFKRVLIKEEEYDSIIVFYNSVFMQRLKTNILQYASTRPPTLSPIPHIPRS

The target of another test is T3, Rb^P I703F (human, UniProt P06400 380-788, I703F).
T3 construct: also called variant 64
T3 sequence (looked up): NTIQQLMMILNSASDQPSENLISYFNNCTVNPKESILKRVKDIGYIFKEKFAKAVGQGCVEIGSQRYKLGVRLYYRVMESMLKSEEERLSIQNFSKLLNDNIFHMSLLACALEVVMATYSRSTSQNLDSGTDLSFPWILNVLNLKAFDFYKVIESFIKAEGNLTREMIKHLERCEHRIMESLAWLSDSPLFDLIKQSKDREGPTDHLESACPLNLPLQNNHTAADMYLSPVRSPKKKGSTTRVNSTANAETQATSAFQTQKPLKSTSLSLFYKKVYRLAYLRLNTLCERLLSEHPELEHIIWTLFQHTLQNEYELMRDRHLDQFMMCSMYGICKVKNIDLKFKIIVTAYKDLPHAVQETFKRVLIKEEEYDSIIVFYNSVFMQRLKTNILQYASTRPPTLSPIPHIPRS

The next test deals with T4, Rb^P R741S (human, UniProt P06400 380-788, R741S).
T4 construct: also called variant 70
T4 sequence (looked up): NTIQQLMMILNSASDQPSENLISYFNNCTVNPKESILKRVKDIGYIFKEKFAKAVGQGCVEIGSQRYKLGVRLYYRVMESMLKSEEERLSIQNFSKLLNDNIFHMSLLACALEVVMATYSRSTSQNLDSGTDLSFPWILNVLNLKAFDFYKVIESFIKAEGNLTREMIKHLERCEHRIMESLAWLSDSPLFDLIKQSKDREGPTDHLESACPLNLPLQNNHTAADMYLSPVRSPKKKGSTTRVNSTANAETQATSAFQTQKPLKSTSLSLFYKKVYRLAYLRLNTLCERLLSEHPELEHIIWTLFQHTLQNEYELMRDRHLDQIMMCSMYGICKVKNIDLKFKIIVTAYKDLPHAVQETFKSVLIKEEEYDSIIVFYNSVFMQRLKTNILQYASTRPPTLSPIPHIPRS

The target in another test is T5, Rb^P S751Y (human, UniProt P06400 380-788, S751Y).
T5 construct: also called variant 72
T5 sequence (looked up): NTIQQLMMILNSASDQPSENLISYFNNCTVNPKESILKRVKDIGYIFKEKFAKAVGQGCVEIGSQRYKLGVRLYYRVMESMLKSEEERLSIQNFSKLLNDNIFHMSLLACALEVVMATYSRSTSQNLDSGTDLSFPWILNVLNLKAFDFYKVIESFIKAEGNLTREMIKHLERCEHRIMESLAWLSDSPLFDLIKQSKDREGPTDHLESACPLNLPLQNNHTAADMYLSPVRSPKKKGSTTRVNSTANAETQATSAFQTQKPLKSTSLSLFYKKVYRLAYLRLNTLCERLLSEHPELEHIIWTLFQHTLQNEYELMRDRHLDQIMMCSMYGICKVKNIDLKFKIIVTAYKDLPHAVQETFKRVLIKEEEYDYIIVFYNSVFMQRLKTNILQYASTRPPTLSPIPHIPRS

B1: TMR-E2F1^TD, peptide of the E2F1 transactivation domain (peptide)
peptide: {TMR}-GEGIRDLFDCDFGDLTPLD
notes: also called E2F^TD; source: synthetic peptide, bought: GenScript
For B1, the Kd with Rb^P V654L was determined as 30 nM; with Rb^P R656W, 77 nM; with Rb^P I703F it was 396 nM; with Rb^P R741S, 84 nM; with Rb^P S751Y, 127 nM.

B2: TMR-E7^LxCxE, LxCxE peptide of the E7 oncoprotein from HPV (peptide)
peptide: DLYCYEQLN
modifications: also: TMR label, position not given here
notes: source: synthetic peptide, bought: GenScript
For the molecule B2, the Kd with Rb^P V654L stood at 21 nM; with Rb^P R656W it was 19 nM; with Rb^P I703F, 275 nM; with Rb^P R741S it was 46 nM; with Rb^P S751Y, 420 nM.
